Laboratory results: patent publication US20250250355A1 (BIOSION, published 2025)
Where two headings read alike, the source gives them in different places.

What was measured:
human SIRPα-his protein = human SIRPα-his protein (human, UniProt P78324 31-370); assay: competitive ELISA on coated human SIRPα-his; blocked ligand: biotin-labeled human CD47-his, OD(450-630)
[1] = biological target: T1, full length human SIRPα on cell membranes (HEK293-SIRPα cells; 293F-SIRPα cells) (human, UniProt P78324 31-504); assay: cell based blocking FACS on 293F-SIRPα cells; blocked ligand: human CD47 protein (CD47-Fc), MFI
T1 construct: whole, on cells; also called cell surface human SIRPα; cell surface SIRPα

[2] = biological target: T1, full length human SIRPα on cell …; assay: as above; remark: listed apart in the source
[3] = biological target: T2, full length human SIRPβ on cell membranes (HEK293-SIRPβ cells; 293F cells expressing human SIRPβ) (human, UniProt O00241 30-398); assay: cell based binding FACS on HEK293-SIRPβ cells, MFI; curve not visible in the scan
T2 construct: whole, on cells; also called cell surface human SIRPβ

[4] = biological target: T3, human SIRPα protein (soluble, used on 293F-CD47 cells) (human, UniProt P78324 31-370, limits assumed); assay: cell based blocking FACS on 293F-CD47 cells; soluble human SIRPα protein blocked from binding cell surface human CD47, MFI
[5] = biological target: T4, human SIRPα-V8-his protein (human, UniProt P78324 31-370, limits assumed); assay: indirect ELISA on coated human SIRPα-V8-his, OD(450-630)
[6] = biological target: T1, full length human SIRPα on cell …; assay: cell based binding FACS on 293F cells expressing human SIRPα, MFI
[7] = biological target: human SIRPα-isoform 2-his protein (human); assay: indirect ELISA on coated human SIRPα-isoform 2-his, OD(450-630)
[8] = biological target: T5, full length human SIRPγ endogenously expressed on Jurkat cells (human, UniProt Q9P1W8 29-387); assay: cell based binding FACS on Jurkat cells (endogenous human SIRPγ), MFI; plateau at MFI about 325
T5 construct: whole, on cells; also called human SIRPγ expressed on Jurkat cells

[9] = biological target: T1, full length human SIRPα on cell …; assay: cell based binding FACS on HEK293-SIRPα cells, MFI; curve not visible in the scan
[10] = biological target: T3, human SIRPα protein (soluble, used on …); assay: cell based blocking FACS on 293F-CD47 cells; soluble human SIRPα protein blocked from binding cell surface human CD47, MFI; remark: listed apart in the source
[11] = biological target: T1, full length human SIRPα on cell …; assay: cell based binding FACS on 293F cells expressing human SIRPα, MFI; remark: listed apart in the source
[12] = biological target: human SIRPα-isoform 2-his protein (human); assay: indirect ELISA on coated human SIRPα-isoform 2-his, OD(450-630); plateau at OD about 1.0
[13] = biological target: T5, full length human SIRPγ endogenously …; assay: cell based binding FACS on Jurkat cells (endogenous human SIRPγ), MFI; plateau at MFI about 330
[14] = biological target: T2, full length human SIRPβ on cell …; assay: cell based binding FACS on 293F cells expressing human SIRPβ, MFI
[15] = biological target: human SIRPα-isoform 2-his protein (human); assay: indirect ELISA on coated human SIRPα-isoform 2-his, OD(450-630); remark: listed apart in the source
[16] = biological target: T2, full length human SIRPβ on cell …; assay: cell based binding FACS on 293F cells expressing human SIRPβ, MFI; remark: listed apart in the source
mouse SIRPα-his = biological target: T6, mouse SIRPα-his (mouse, UniProt P97797 35-363, limits assumed); assay: indirect ELISA on coated mouse SIRPα-his, OD(450-630)
T6 chain: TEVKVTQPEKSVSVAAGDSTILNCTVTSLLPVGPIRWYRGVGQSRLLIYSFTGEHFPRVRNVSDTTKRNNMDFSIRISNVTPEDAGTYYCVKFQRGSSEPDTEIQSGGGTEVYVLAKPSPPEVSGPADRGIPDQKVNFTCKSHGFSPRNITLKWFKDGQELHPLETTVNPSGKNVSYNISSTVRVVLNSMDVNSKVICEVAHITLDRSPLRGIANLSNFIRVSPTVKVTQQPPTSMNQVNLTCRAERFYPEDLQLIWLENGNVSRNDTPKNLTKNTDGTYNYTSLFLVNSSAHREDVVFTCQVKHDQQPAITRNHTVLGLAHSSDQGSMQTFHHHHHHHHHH

[17] = biological target: T4, human SIRPα-V8-his protein; assay: indirect ELISA on coated human SIRPα-V8-his, OD(450-630); curve not visible in the scan
[18] = biological target: T7, recombinant human SIRPα-Fc protein (human, biotin-labeled (sites not given)); assay: capture ELISA, antibody captured on anti-mouse IgG F(ab')2, biotin-labeled human SIRPα-Fc in solution, OD(450-630)
T7 construct: also called biotin-labeled human SIRPα-Fc protein

[19] = biological target: T5, full length human SIRPγ endogenously …; assay: cell based binding FACS on Jurkat cells (endogenous human SIRPγ), MFI; curve not visible in the scan

IC50 (human SIRPα-his protein): 2 nM | IC50 [1]: 0.731 nM | IC50 [2]: 0.753 nM | EC50 [3]: 0.272 nM | IC50 [4]: 0.241 nM | EC50 [5]: 0.255 nM | EC50 [6]: 0.309 nM | EC50 [7]: 0.409 nM | EC50 [8]: 0.00761 nM | EC50 [9]: 0.383 nM | IC50 [10]: 0.25 nM | EC50 [11]: 0.307 nM | EC50 [12]: 0.436 nM | EC50 [13]: 0.00724 nM | EC50 [14]: 0.156 nM | EC50 [15]: 0.307 nM | EC50 [16]: 0.164 nM | binding result (mouse SIRPα-his): no binding (tested: ~67 nM) | EC50 [17]: 0.339 nM | EC50 [18]: 0.0774 nM | EC50 [19]: 0.0102 nM
B1: KWAR23 (antibody, human IgG4 S228P, kappa, V domains shown)
VH: EVQLQQSGAELVKPGASVKLSCTASGFNIKDYYIHWVQQRTEQGLEWIGRIDPEDGETKYAPKFQDKATITADTSSNTAYLHLSSLTSEDTAVYYCARWGAYWGQGTLVTVSA
VL: QIVLTQSPAIMSASPGEKVTLTCSASSSVSSSYLYWYQQKPGSSPKLWIYSTSNLASGVPARFSGSGSGTSYSLTISSMEAEDAASYFCHQWSSYPRTFGAGTKLELKR
notes: also called BM
